Earlier results on two substances are cited in publication PMC11533685.

The target in one series is CD58 ECD (Homo sapiens) (UniProt P19256). Put plainly: SPR. For orientation: SPR reads the build-up and loss of mass on a sensor chip optically.
The target in another series is CD200R ECD (UniProt Q8TD46). Put plainly: SPR.
Sequence of UniProt Q8TD46 (Q8TD46 25-265): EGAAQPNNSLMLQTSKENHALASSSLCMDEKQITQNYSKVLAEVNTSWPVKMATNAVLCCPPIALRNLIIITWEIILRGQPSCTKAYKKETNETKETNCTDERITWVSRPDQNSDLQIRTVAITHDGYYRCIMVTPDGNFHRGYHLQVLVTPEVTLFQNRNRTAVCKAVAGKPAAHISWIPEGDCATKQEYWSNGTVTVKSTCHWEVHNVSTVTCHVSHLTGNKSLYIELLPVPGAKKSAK

Sequence of UniProt P19256 (P19256 29-215): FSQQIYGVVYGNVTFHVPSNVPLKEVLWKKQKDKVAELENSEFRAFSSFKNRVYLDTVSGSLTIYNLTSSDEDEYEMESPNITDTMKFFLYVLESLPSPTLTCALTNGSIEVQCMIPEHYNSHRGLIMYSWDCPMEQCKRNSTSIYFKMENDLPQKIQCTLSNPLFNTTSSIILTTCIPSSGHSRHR

By Kd is commonly meant a measure of binding affinity in units of concentration. Regarding CD2 ECD (from UniProt P06729), the Kd in the series with CD58 ECD (Homo sapiens) was 10 µM.
CD200 ECD (from UniProt P41217): in the series with CD200R ECD, the dissociation constant (Kd) is 1 µM.
